Measurements reported in patent publication US20030118612A1 (MAXYGEN, published 2003).

T1: human G-CSF receptor (human, UniProt Q99062 25-836)
T1 sequence (looked up): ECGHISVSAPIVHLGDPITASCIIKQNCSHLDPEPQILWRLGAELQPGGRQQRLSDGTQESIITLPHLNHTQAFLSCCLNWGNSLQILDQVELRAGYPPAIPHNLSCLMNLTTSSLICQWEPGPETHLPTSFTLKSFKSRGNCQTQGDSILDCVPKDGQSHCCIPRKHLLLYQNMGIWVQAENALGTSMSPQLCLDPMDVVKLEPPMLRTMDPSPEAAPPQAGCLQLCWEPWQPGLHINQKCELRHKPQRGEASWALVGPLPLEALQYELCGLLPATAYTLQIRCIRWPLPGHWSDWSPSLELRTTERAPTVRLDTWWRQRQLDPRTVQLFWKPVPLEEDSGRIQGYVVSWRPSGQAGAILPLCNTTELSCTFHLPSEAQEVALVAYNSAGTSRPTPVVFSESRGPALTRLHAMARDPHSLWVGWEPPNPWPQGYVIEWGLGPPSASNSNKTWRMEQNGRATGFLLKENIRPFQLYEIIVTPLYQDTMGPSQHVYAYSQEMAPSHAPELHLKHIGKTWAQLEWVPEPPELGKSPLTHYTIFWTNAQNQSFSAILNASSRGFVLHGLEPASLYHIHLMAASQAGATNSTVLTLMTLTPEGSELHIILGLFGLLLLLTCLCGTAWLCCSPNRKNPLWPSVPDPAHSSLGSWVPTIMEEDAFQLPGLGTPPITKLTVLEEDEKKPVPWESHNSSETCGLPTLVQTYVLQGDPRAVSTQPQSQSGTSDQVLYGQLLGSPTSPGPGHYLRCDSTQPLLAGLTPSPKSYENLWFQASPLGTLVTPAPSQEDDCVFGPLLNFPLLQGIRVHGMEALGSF


Biological target: T1, human G-CSF receptor
Assay: cell-based or functional assay

Binder | EC50 (% of hG-CSF) non-conjugated | EC50 (% of hG-CSF) conjugated to SPA-PEG 5000
G-CSF variant K16/34/40R S159K, non-conjugated (ligand) TPLGPASSLPQSFLLRCLEQVRKIQGDGAALQERLCATYRLCHPEELVLLGHSLGIPWAPLSSCPSQALQLAGCLSQLHSGLFLYQGLLQALEGISPELGPTLDTLQLDVADFATTIWQQMEELGMAPALQPTQGAMPAFASAFQRRAGGVLVASHLQKFLEVSYRVLRHLAQP | 20 % of hG-CSF | 
G-CSF variant 16Q conjugated to SPA-PEG 5000 (ligand, SPA-PEG 5000 conjugated to the available PEGylation sites) TPLGPASSLPQSFLLQCLEQVRKIQGDGAALQEKLCATYKLCHPEELVLLGHSLGIPWAPLSSCPSQALQLAGCLSQLHSGLFLYQGLLQALEGISPELGPTLDTLQLDVADFATTIWQQMEELGMAPALQPTQGAMPAFASAFQRRAGGVLVASHLQSFLEVSYRVLRHLAQP |  | 1 % of hG-CSF
G-CSF variant K16/34/40R S159K conjugated to SPA-PEG 5000 (ligand, SPA-PEG 5000 conjugated to the available PEGylation sites) TPLGPASSLPQSFLLRCLEQVRKIQGDGAALQERLCATYRLCHPEELVLLGHSLGIPWAPLSSCPSQALQLAGCLSQLHSGLFLYQGLLQALEGISPELGPTLDTLQLDVADFATTIWQQMEELGMAPALQPTQGAMPAFASAFQRRAGGVLVASHLQKFLEVSYRVLRHLAQP |  | 3 % of hG-CSF
G-CSF variant K16/34/40R Q70K Q90K conjugated to SPA-PEG 5000 (ligand, SPA-PEG 5000 conjugated to the available PEGylation sites) TPLGPASSLPQSFLLRCLEQVRKIQGDGAALQERLCATYRLCHPEELVLLGHSLGIPWAPLSSCPSQALKLAGCLSQLHSGLFLYQGLLKALEGISPELGPTLDTLQLDVADFATTIWQQMEELGMAPALQPTQGAMPAFASAFQRRAGGVLVASHLQSFLEVSYRVLRHLAQP |  | 20 % of hG-CSF
G-CSF variant K16/34/40R Q70K Q120K, non-conjugated (ligand) TPLGPASSLPQSFLLRCLEQVRKIQGDGAALQERLCATYRLCHPEELVLLGHSLGIPWAPLSSCPSQALKLAGCLSQLHSGLFLYQGLLQALEGISPELGPTLDTLQLDVADFATTIWQKMEELGMAPALQPTQGAMPAFASAFQRRAGGVLVASHLQSFLEVSYRVLRHLAQP | 25 % of hG-CSF | 
G-CSF variant K16/34/40R Q70K Q120K conjugated to SPA-PEG 5000 (ligand, SPA-PEG 5000 conjugated to the available PEGylation sites) TPLGPASSLPQSFLLRCLEQVRKIQGDGAALQERLCATYRLCHPEELVLLGHSLGIPWAPLSSCPSQALKLAGCLSQLHSGLFLYQGLLQALEGISPELGPTLDTLQLDVADFATTIWQKMEELGMAPALQPTQGAMPAFASAFQRRAGGVLVASHLQSFLEVSYRVLRHLAQP |  | 25 % of hG-CSF
G-CSF variant K16/34/40R Q90K T105K, non-conjugated (ligand) TPLGPASSLPQSFLLRCLEQVRKIQGDGAALQERLCATYRLCHPEELVLLGHSLGIPWAPLSSCPSQALQLAGCLSQLHSGLFLYQGLLKALEGISPELGPTLDKLQLDVADFATTIWQQMEELGMAPALQPTQGAMPAFASAFQRRAGGVLVASHLQSFLEVSYRVLRHLAQP | 40 % of hG-CSF | 
G-CSF variant K16/34/40R Q90K T105K conjugated to SPA-PEG 5000 (ligand, SPA-PEG 5000 conjugated to the available PEGylation sites) TPLGPASSLPQSFLLRCLEQVRKIQGDGAALQERLCATYRLCHPEELVLLGHSLGIPWAPLSSCPSQALQLAGCLSQLHSGLFLYQGLLKALEGISPELGPTLDKLQLDVADFATTIWQQMEELGMAPALQPTQGAMPAFASAFQRRAGGVLVASHLQSFLEVSYRVLRHLAQP |  | 10 % of hG-CSF
G-CSF variant K16/34/40R Q90K Q120K, non-conjugated (ligand) TPLGPASSLPQSFLLRCLEQVRKIQGDGAALQERLCATYRLCHPEELVLLGHSLGIPWAPLSSCPSQALQLAGCLSQLHSGLFLYQGLLKALEGISPELGPTLDTLQLDVADFATTIWQKMEELGMAPALQPTQGAMPAFASAFQRRAGGVLVASHLQSFLEVSYRVLRHLAQP | 25 % of hG-CSF | 
G-CSF variant K16/34/40R Q90K Q120K conjugated to SPA-PEG 5000 (ligand, SPA-PEG 5000 conjugated to the available PEGylation sites) TPLGPASSLPQSFLLRCLEQVRKIQGDGAALQERLCATYRLCHPEELVLLGHSLGIPWAPLSSCPSQALQLAGCLSQLHSGLFLYQGLLKALEGISPELGPTLDTLQLDVADFATTIWQKMEELGMAPALQPTQGAMPAFASAFQRRAGGVLVASHLQSFLEVSYRVLRHLAQP |  | 15 % of hG-CSF
G-CSF variant K16/34/40R Q90K S159K, non-conjugated (ligand) TPLGPASSLPQSFLLRCLEQVRKIQGDGAALQERLCATYRLCHPEELVLLGHSLGIPWAPLSSCPSQALQLAGCLSQLHSGLFLYQGLLKALEGISPELGPTLDTLQLDVADFATTIWQQMEELGMAPALQPTQGAMPAFASAFQRRAGGVLVASHLQKFLEVSYRVLRHLAQP | 45 % of hG-CSF | 
G-CSF variant K16/34/40R T105K Q120K, non-conjugated (ligand) TPLGPASSLPQSFLLRCLEQVRKIQGDGAALQERLCATYRLCHPEELVLLGHSLGIPWAPLSSCPSQALQLAGCLSQLHSGLFLYQGLLQALEGISPELGPTLDKLQLDVADFATTIWQKMEELGMAPALQPTQGAMPAFASAFQRRAGGVLVASHLQSFLEVSYRVLRHLAQP | 20 % of hG-CSF | 
G-CSF variant 23Q, non-conjugated (ligand) TPLGPASSLPQSFLLKCLEQVRQIQGDGAALQEKLCATYKLCHPEELVLLGHSLGIPWAPLSSCPSQALQLAGCLSQLHSGLFLYQGLLQALEGISPELGPTLDTLQLDVADFATTIWQQMEELGMAPALQPTQGAMPAFASAFQRRAGGVLVASHLQSFLEVSYRVLRHLAQP | 80 % of hG-CSF | 
G-CSF variant K16/34/40R T105K Q120K conjugated to SPA-PEG 5000 (ligand, SPA-PEG 5000 conjugated to the available PEGylation sites) TPLGPASSLPQSFLLRCLEQVRKIQGDGAALQERLCATYRLCHPEELVLLGHSLGIPWAPLSSCPSQALQLAGCLSQLHSGLFLYQGLLQALEGISPELGPTLDKLQLDVADFATTIWQKMEELGMAPALQPTQGAMPAFASAFQRRAGGVLVASHLQSFLEVSYRVLRHLAQP |  | 8 % of hG-CSF
G-CSF variant K16/34/40R T105K S159K, non-conjugated (ligand) TPLGPASSLPQSFLLRCLEQVRKIQGDGAALQERLCATYRLCHPEELVLLGHSLGIPWAPLSSCPSQALQLAGCLSQLHSGLFLYQGLLQALEGISPELGPTLDKLQLDVADFATTIWQQMEELGMAPALQPTQGAMPAFASAFQRRAGGVLVASHLQKFLEVSYRVLRHLAQP | 40 % of hG-CSF | 
G-CSF variant K16/34/40R T105K S159K conjugated to SPA-PEG 5000 (ligand, SPA-PEG 5000 conjugated to the available PEGylation sites) TPLGPASSLPQSFLLRCLEQVRKIQGDGAALQERLCATYRLCHPEELVLLGHSLGIPWAPLSSCPSQALQLAGCLSQLHSGLFLYQGLLQALEGISPELGPTLDKLQLDVADFATTIWQQMEELGMAPALQPTQGAMPAFASAFQRRAGGVLVASHLQKFLEVSYRVLRHLAQP |  | 20 % of hG-CSF
G-CSF variant K16/34/40R Q120K T133K, non-conjugated (ligand) TPLGPASSLPQSFLLRCLEQVRKIQGDGAALQERLCATYRLCHPEELVLLGHSLGIPWAPLSSCPSQALQLAGCLSQLHSGLFLYQGLLQALEGISPELGPTLDTLQLDVADFATTIWQKMEELGMAPALQPKQGAMPAFASAFQRRAGGVLVASHLQSFLEVSYRVLRHLAQP | 20 % of hG-CSF | 
G-CSF variant K16/34/40R Q120K T133K conjugated to SPA-PEG 5000 (ligand, SPA-PEG 5000 conjugated to the available PEGylation sites) TPLGPASSLPQSFLLRCLEQVRKIQGDGAALQERLCATYRLCHPEELVLLGHSLGIPWAPLSSCPSQALQLAGCLSQLHSGLFLYQGLLQALEGISPELGPTLDTLQLDVADFATTIWQKMEELGMAPALQPKQGAMPAFASAFQRRAGGVLVASHLQSFLEVSYRVLRHLAQP |  | 8 % of hG-CSF
G-CSF variant K16/34/40R Q120K S142K, non-conjugated (ligand) TPLGPASSLPQSFLLRCLEQVRKIQGDGAALQERLCATYRLCHPEELVLLGHSLGIPWAPLSSCPSQALQLAGCLSQLHSGLFLYQGLLQALEGISPELGPTLDTLQLDVADFATTIWQKMEELGMAPALQPTQGAMPAFAKAFQRRAGGVLVASHLQSFLEVSYRVLRHLAQP | 10 % of hG-CSF | 
